One block for each molecule: values may come before it.
How the values were obtained:
[1] = target: T1, EGFR-pY1068 (SEQ ID NO: 7) (Homo sapiens, UniProt P00533); assay: Single-well 4-spot assay for multiple peptide-protein interactions; format: binding; settings: 4-spot plate
T1 construct: phosphotyrosine at Tyr1068 (chemical modification); purchased New England Peptide, Fitchburg Mass; host or cells: chemical synthesis
Excerpt: (§1) Four phosphopeptides and their cognate binding proteins (Table 14) were selected for an integrated assay of multiple peptide-protein interaction in 4-spot Multi-Array plates. The IkBa-24pp peptide and its binding protein, βTRCP, are described in Example 10. […] These phosphotyrosine containing peptides are recognized by different adaptor or effecter proteins of the receptor tyrosine kinase signaling pathway.
(§2) These four peptides were coupled to BSA carrier protein through cystine residue. After purification on PD-10 gel filtration columns, the peptide-BSA conjugates were then deposited on the assay domains of a 4-spot multi-array IPR plate (i.e., in one of the four exposed regions of working electrode defined by the dielectric layer) with an automated micro-dispensing system (Bio-Dot Dispenser, Bio-Dot, Irvine Calif.). […] These plates are dried then used or stored under desiccated conditions. A few hours prior to usage the plates were rehydrated and blocked with 3% BSA in PBS. […] The in vitro translated and biotin-labeled proteins were then assayed in the 4-spot multi-array IPR plates under conditions described in Example 10.

[2] = target: T2, EGFR-pY1148 (SEQ ID NO: 9) (Homo sapiens, UniProt P00533); assay: as above; format: binding; settings: 4-spot plate
T2 construct: phosphotyrosine at Tyr1148 (chemical modification); purchased New England Peptide, Fitchburg Mass; host or cells: chemical synthesis
Excerpt: as §1, §2

[3] = test system: pooled phosphopeptide:BSA conjugates (Pools A-D); assay: Coded multiplex phosphopeptide binding assay with pooled peptide:BSA conjugates on 4 spots; settings: for ECL signal, spot A: Pool A, EGFR-pTyr1148, IkBa-24ppC, Myc-p58Tp62S; for ECL signal, spot B: Pool B, EGFR-pTyr992, EGFR-pTyr1148, Smad3C; for ECL signal, spot C: Pool C, EGFR-pTyr1068, IkBa-24ppC, Smad3C; for ECL signal, spot D: Pool D, EGFR-pTyr992, EGFR-pTyr1068, Myc-p58Tp62S
Excerpt: To prepare the Multi-Spot IPR plates, in this example we made use of pools of the peptide:BSA conjugates to coat each of 4 spots per well in a 96 well plate. To achieve this we made the following pools; • Pool A; EGFR-pTyr1148, IkBa-24ppC, Myc-p58Tp62S. • Pool B; EGFR-pTyr992, EGFR-pTyr1148, Smad3C. • Pool C; EGFR-pTyr1068, IkBa-24ppC, Smad3C. • Pool D; EGFR-pTyr992, EGFR-pTyr1068, Myc-p58Tp62S.
This combination of the various peptides results in any single peptide being present in two pools. Each of these four pools is then spotted on to a unique spot in a 4 spot array. In this way any single binding protein with specificity for only one of the peptides would bind to two spots; the identity of the two spots would allow the identification of the peptide involved in the binding reaction.
Typically approximately 120 fmole of peptide:BSA conjugate in 0.25 μl was deposited on each spot of a 4-spot multi-array IPR plates using a BioDot Dispenser (Bio-Dot Inc., vIrvine Calif.). At this stage, the plates were dried then used or stored under desiccated condition. A few hours prior to usage, the plates were rehydrated and blocked with 3% BSA, in PBS.
To test the system the following EST clones IMAGE # 3491843, 4237375, 4398016, 4419252, 3872466, 3907115 were obtained. These clones express the following genes βTRCP1, βTRCP2, Grb2, PLCγ, CBP and Shc1, respectively. […] These DNAs were used to produce proteins as described in the Materials and Methods. Proteins were transferred to a well of the 4 spot peptide-coated and BSA blocked ECL plates. The binding assay (using Sulfo-TAG labeled streptavidin as a detection agent) was carried our according to the procedures described in Example 11.

[4] = target: T3, IkBa-24pp (SEQ ID NO: 1) (Homo sapiens, UniProt P25963); assay: Single-well 4-spot assay for multiple peptide-protein interactions; format: binding
T3 construct: two phosphoserines in the DSGLDS motif (chemical modification); purchased New England Peptide, Fitchburg Mass; host or cells: chemical synthesis
Excerpt: Four phosphopeptides and their cognate binding proteins (Table 14) were selected for an integrated assay of multiple peptide-protein interaction in 4-spot Multi-Array plates. The IkBa-24pp peptide and its binding protein, βTRCP, are described in Example 10. The remaining peptides are derived from the carboxyl terminus of the EGF receptor. These phosphotyrosine containing peptides are recognized by different adaptor or effecter proteins of the receptor tyrosine kinase signaling pathway.
These four peptides were coupled to BSA carrier protein through cystine residue. After purification on PD-10 gel filtration columns, the peptide-BSA conjugates were then deposited on the assay domains of a 4-spot multi-array IPR plate (i.e., in one of the four exposed regions of working electrode defined by the dielectric layer) with an automated micro-dispensing system (Bio-Dot Dispenser, Bio-Dot, Irvine Calif.). Typically about 120 fmole of peptide:BSA conjugate in 0.25 μl was deposited on each spot of a 4-spot multi-array IPR plate. These plates are dried then used or stored under desiccated conditions. […] Thus, in this assay format, each peptide not only serves as the capture agent for assaying specific interaction with its binding protein, but also at the same time serves as a control for other peptide-protein interaction to be determined in the same well. […]

T3 sequence (P25963 with tags, fused parts or gaps limits assumed): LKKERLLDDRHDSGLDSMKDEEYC

ECL signal, spot 3 EGFR-pY1068 [1]: 1485
ECL signal, spot 2 EGFR-pY1148 [2]: 110
Code (pattern of positive spots) [3]: B, C, D
Peptide determined from code [3]: EGFR-pTyr992 & EGFR-pTyr1068
ECL signal, spot A [3]: 239
ECL signal, spot B [3]: 2783
ECL signal, spot C [3]: 1550
ECL signal, spot D [3]: 3388
B1: 4419252: IMAGE clone protein: PLCγ (protein)
chain: MAGAASPCANGCGPGAPSDAEVLHLCRSLEVGTVMTLFYSKKSQRPERKTFQVKLETRQITWSRGADKIEGAIDIREIKEIRPGKTSRDFDRYQEDPAFRPDQSHCFVILYGMEFRLKTLSLQATSEDEVNMWIKGLTWLMEDTLQAPTPLQIERWLRKQFYSVDRNREDRISAKDLKNMLSQVNYRVPNMRFLRERLTDLEQRSGDITYGQFAQLYRSLMYSAQKTMDLPFLEASTLRAGERPELCRVSLPEFQQFLLDYQGELWAVDRLQVQEFMLSFLRDPLREIEEPYFFLDEFVTFLFSKENSVWNSQLDAVCPDTMNNPLSHYWISSSHNTYLTGDQFSSESSLEAYARCLRMGCRCIELDCWDGPDGMPVIYHGHTLTTKIKFSDVLHTIKEHAFVASEYPVILSIEDHCSIAQQRNMAQYFKKVLGDTLLTKPVEISADGLPSPNQLKRKILIKHKKLAEGSAYEEVPTSMMYSENDISNSIKNGILYLEDPVNHEWYPHYFVLTSSKIYYSEETSSDQGNEDEEEPKEVSSSTELHSNEKWFHGKLGAGRDGRHIAERLLTEYCIETGAPDGSFLVRESETFVGDYTLSFWRNGKVQHCRIHSRQDAGTPKFFLTDNLVFDSLYDLITHYQQVPLRCNEFEMRLSEPVPQTNAHESKEWYHASLTRAQAEHMLMRVPRDGAFLVRKRNEPNSYAISFRAEGKIKHCRVQQEGQTVMLGNSEFDSLVDLISYYEKHPLYRKMKLRYPINEEALEKIGTAEPDYGALYEGRNPGFYVEANPMPTFKCAVKALFDYKAQREDELTFIKSAIIQNVEKQEGGWWRGDYGGKKQLWFPSNYVEEMVNPVALEPEREHLDENSPLGDLLRGVLDVPACQIAIRPEGKNNRLFVFSISMASVAHWSLDVAADSQEELQDWVKKIREVAQTADARLTEGKIMERRKKIALELSELVVYCRPVPFDEEKIGTERACYRDMSSFPETKAEKYVNKAKGKKFLQYNRLQLSRIYPKGQRLDSSNYDPLPMWICGSQLVALNFQTPDKPMQMNQALFMTGRHCGYVLQPSTMRDEAFDPFDKSSLRGLEPCAISIEVLGARHLPKNGRGIVCPFVEIEVAGAEYDSTKQKTEFVVDNGLNPVWPAKPFHFQISNPEFAFLRFVVYEEDMFSDQNFLAQATFPVKGLKTGYRAVPLKNNYSEDLELASLLIKIDIFPAKENGDLSPFSGTSLRERGSDASGQLFHGRAREGSFESRYQQPFEDFRISQEHLADHFDSRERRAPRRTRVNGDNRL

ECL signal, spot 1 IkBa-24pp ([4]; 4-spot plate): 5040
fold higher ECL signal from spot 1 than with TnT mixtures containing no exogenous DNA ([4]; spot 1 (IkBa-24pp-BSA conjugate)): 100 fold
ECL signal, spot 3 EGFR-pY1068 [1]: 24
ECL signal, spot 2 EGFR-pY1148 [2]: 35
Code (pattern of positive spots) [3]: A, C
Peptide determined from code [3]: IkBa-24ppC
ECL signal, spot A [3]: 7791
ECL signal, spot B [3]: 105
ECL signal, spot C [3]: 8615
ECL signal, spot D [3]: 74
B2: 4237375: IMAGE clone protein: βTRCP2 (protein)
chain: MEPDSVIEDKTIELMCSVPRSLWLGCANLVESMCALSCLQSMPSVRCLQISNGTSSVIVSRKRPSEGNYQKEKDLCIKYFDQWSESDQVEFVEHLISRMCHYQHGHINSYLKPMLQRDFITALPEQGLDHIAENILSYLDARSLCAAELVCKEWQRVISEGMLWKKLIERMVRTDPLWKGLSERRGWDQYLFKNRPTDGPPNSFYRSLYPKIIQDIETIESNWRCGRHNLQRIQCRSENSKGVYCLQYDDEKIISGLRDNSIKIWDKTSLECLKVLTGHTGSVLCLQYDERVIVTGSSDSTVRVWDVNTGEVLNTLIHHNEAVLHLRFSNGLMVTCSKDRSIAVWDMASATDITLRRVLVGHRAAVNVVDFDDKYIVSASGDRTIKVWSTSTCEFVRTLNGHKRGIACLQYRDRLVVSGSSDNTIRLWDIECGACLRVLEGHEELVRCIRFDNKRIVSGAYDGKIKVWDLQAALDPRAPASTLCLRTLVEHSGRVFRLQFDEFQIISSSHDDTILIWDFLNVPPSAQNETRSPSRTYTYISR
